# Assay results reported in patent publication US20190185581A1 (University of California, published 2019).
# Substitutions are numbered along the chain they refer to. Numbers in names are those of the source.
# T1: catalytic domain of MMP-9 (cdMMP-9) (human, UniProt P14780 107-443, limits assumed)
# T1 sequence: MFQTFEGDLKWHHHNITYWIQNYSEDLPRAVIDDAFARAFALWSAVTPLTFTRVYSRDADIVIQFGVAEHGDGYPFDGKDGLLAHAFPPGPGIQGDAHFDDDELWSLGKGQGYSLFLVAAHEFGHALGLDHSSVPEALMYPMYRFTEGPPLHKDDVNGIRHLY
# B1: Fab R2C5 (Fab, V domains shown)
# VH: EVQLVESGGGLVQPGGSLRLSCAASGFNLSSYYMHWVRQAPGKGLEWVASIYPYSSYTSYADSVKGRFTISADTSKNTAYLQMNSLRAEDTAVYYCARIMKIKRNSLKFRGFVPLQMQYVMDYWGQGTLVTVSS
# VL: DIQMTQSPSSLSASVGDRVTITCRASQSVSSAVAWYQQKPGKAPKLLIYSASSLYSGVPSRFSGSRSGTDFTLTISSLQPEDFATYYCQQSYGLFTFGQGTKVEIKR
# B2: Fab 33C4 (Fab, V domains shown)
# VH: EVQLVESGGGLVQPGGSLRLSCAASGFNLYSSSMHWVRQAPGKGLEWVASIYPYYGYTYYADSVKGRFTISADTSKNTAYLQMNSLRAEDTAVYYCARPTTSRVNKKLFRVSVLHPGSYGMDYWGQGTLVTVSS
# VL: B1 VL with S91A, Y92S, G93Y, F95I
# notes: also called R2C3; not shown: His tag at the C-terminus of the heavy chain
# B3: Fab 3F3 (Fab, V domains shown)
# VH: EVQLVESGGGLVQPGGSLRLSCAASGFNIYSSSMHWVRQAPGKGLEWVAYIYPYSGYTYYADSVKGRFTISADTSKNTAYLQMNSLRAEDTAVYYCARLYNGWLMVEGIGSAREGPTWYAMDYWGQGTLVTVSS
# VL: DIQMTQSPSSLSASVGDRVTITCRASQSVSSAVAWYQQKPGKAPKLLIYSASSLYSGVPSRFSGSRSGTDFTLTISSLQPEDFATYYCQQGGVYAAHPFTFGQGTKVEIKR
# notes: also called R2C13; not shown: His tag at the C-terminus of the heavy chain
# B4: Fab 33D4 (Fab, V domains shown)
# VH: EVQLVESGGGLVQPGGSLRLSCAASGFNIYYSSMHWVRQAPGKGLEWVASISPYSGSTYYADSVKGRFTISADTSKNTAYLQMNSLRAEDTAVYYCARSVHMKLSNKILSGWSWNNSFYAMDYWGQGTLVTVSS
# VL: DIQMTQSPSSLSASVGDRVTITCRASQSVSSAVAWYQQKPGKAPKLLIYSASSLYSGVPSRFSGSRSGTDFTLTISSLQPEDFATYYCQQSSYSLITFGQGTKVEIKR
# notes: also called R2C15; not shown: His tag at the C-terminus of the heavy chain
# B5: MMP-14 catalytic domain mutant F198A (enzyme)
# chain: not shown
# B6: MMP-14 catalytic domain mutant N231A (enzyme)
# chain: not shown
# B7: MMP-14 catalytic domain mutant F204A (enzyme)
# chain: not shown
# B8: MMP-14 catalytic domain mutant T190A (enzyme)
# chain: not shown
# B9: MMP-14 catalytic domain mutant Y203A (enzyme)
# chain: not shown
# B10: Fab 3D9 (Fab, V domains shown)
# VH: EVQLVESGGGLVQPGGSLRLSCAASGFNIYSSSIHWVRQAPGKGLEWVASIYSSYGYTYYADSVKGRFTISADTSKNTAYLQMNSLRAEDTAVYYCARRLMAYHGSCSSRLCQTAISPQRYAMDYWGQGTLVTVSS
# VL: B4 VL
# notes: not shown: His tag at the C-terminus of the heavy chain
# B11: N-terminal inhibitory domain of tissue inhibitor of metalloproteinase-2 (n-TIMP-2) (other, UniProt P16035 27-153, looked up)
# chain: CSCSPVHPQQAFCNADVVIRAKAVSEKEVDSGNDIYGNPIKRIQYEIKQIKMFKGPEKDIEFIYTAPSSAVCGVSLDVGGKKEYLIAGKAEGDGKMHITLCDFIVPWDTLSTTQKKSLNHRYQMGCE
# notes: domain: N-terminal domain
# B12: Fab 32D1 (Fab, V domains shown)
# VH: EVQLVESGGGLVQPGGSLRLSCAASGFNLYYSYMHWVRQAPGKGLEWVASISPYSGYTYYADSVKGRFTISADTSKNTAYLQMNSLRAEDTAVYYCARMSLHRNFNQQGRSRLLGRMPRTYGMDYWGQGTLVTVSS
# VL: B1 VL with S91Y, G93S, F95I
# notes: as for B10
# B13: Fab 2B5 (Fab, V domains shown)
# VH: EVQLVESGGGLVQPGGSLRLSCAASGFNLSYSSMHWVRQAPGKGLEWVASIYPYSGYTYYADSVKGRFTISADTSKNTAYLQMNSLRAEDTAVYYCARIGVNAWAVKMSQRMLATRGSGWYVMDYWGQGTLVTVSS
# VL: B3 VL with G91S, G92S, V93S, A95P, A96Y, H97S, F99I
# notes: as for B10
# B14: Fab 3G9 (Fab, V domains shown)
# VH: EVQLVESGGGLVQPGGSLRLSCAASGFNIYYSSIHWVRQAPGKGLEWVASIYSYSGYTYYADSVKGRFTISADTSKNTAYLQMNSLRAEDTAVYYCARATNEKFRRKSLQVRLLMRSWLAYAMDYWGQGTLVTVSS
# VL: B3 VL with G91A, G92S, V93Y, Y94A, A96S, H97A, P98L, F99I
# notes: as for B10
# B15: Fab 3E9 (Fab, V domains shown)
# VH: EVQLVESGGGLVQPGGSLRLSCAASGFNLYYSSMHWVRQAPGKGLEWVASIYPSYGSTYYADSVKGRFTISADTSKNTAYLQMNSLRAEDTAVYYCARNGRYPGFLKRAHKRLLNFKAYVMDYWGQGTLVTVSS
# VL: B4 VL with S91G, Y93W, S94Y
# notes: as for B10
# B16: Fab 32C2 (Fab, V domains shown)
# VH: EVQLVESGGGLVQPGGSLRLSCAASGFNLYYYSMHWVRQAPGKGLEWVAYISPYSSSTYYADSVKGRFTISADTSKNTAYLQMNSLRAEDTAVYYCARSQHAKKSTIIRMLEHQSRSGMQYVMDYWGQGTLVTVSS
# VL: B4 VL
# notes: as for B10
# B17: Fab 3E2 (Fab, V domains shown)
# VH: EVQLVESGGGLVQPGGSLRLSCAASGFNIYYYSIHWVRQAPGKGLEWVASIYPYSSYTYYADSVKGRFTISADTSKNTAYLQMNSLRAEDTAVYYCARGIKGLVFTGSQMKMLRRGNYNWYVMDYWGQGTLVTVSS
# VL: B4 VL
# notes: as for B10
# Target: T1, catalytic domain of MMP-9 (cdMMP-9)
# Assay: competitive ELISA: Fab R2C5 at its IC50 concentration pre-incubated with soluble cdMMP-9, then added to a plate coated with 100 nM cdMMP-14; anti-Fab-HRP
row,Binder,binding result
1,B1,no binding (tested: about 4000 nM (log10(nM) about 3.6))

# Target: T2, catalytic domain of MMP-14 (cdMMP-14) (human, UniProt P50281 114-287, limits assumed, biotinylated (Sulfo-NHS-LC-Biotin) where immobilised via streptavidin)
# Assay: cell-based or functional assay
row,Inhibition potency (FRET IC50) [µM],Binder
1,4.6,B2
2,0.05,B1
3,0.97,B3
4,3.9,B4

# Target: T3, Fab 3A2
# T3 construct: also called R3C9; not shown: His tag at the C-terminus of the heavy chain
# Assay: competitive ELISA: 10 nM Fab 3A2 pre-incubated with soluble MMP-14 (WT or mutant), then captured on immobilised wild-type MMP-14; anti-Fab-HRP
IC50 (read off the curve) [nM],binding result,Binder
~100,,B5
,binds,B6
,binds,B7
~100,,B8
~100,,B9

# Target: T2, catalytic domain of MMP-14 (cdMMP-14)
# Assay: cell-based or functional assay
# Remark: another data set of the same source
IC50 of inhibition at neutral pH 7.5 [nM],IC50 of inhibition at pH 6.5 [nM],IC50 of inhibition at pH 8.5 [nM],inhibitory IC50 (FRET peptide substrate) [nM],Binder
65,10.5,157,,B10
,,,5.1,B11

# Target: T2, catalytic domain of MMP-14 (cdMMP-14)
# Assay: cell-based or functional assay
# Remark: another data set of the same source
row,IC50 by FRET Assay [nM],Binder
1,4200,B12
2,4600,B2
3,240,B13
4,390,B14
5,970,B3
6,6000,B15
7,8000,B16
8,3900,B4
9,61,B10
10,42,B17

# Target: T2, catalytic domain of MMP-14 (cdMMP-14)
# Assay: ELISA, Fab titrated on immobilised MMP-14 catalytic domain, anti-Fab-HRP
# Procedure: Bound Fabs were detected using the anti-Fab-HRP conjugate. The half-maximal effective concentration (EC₅₀) was calculated from a four-parametric logistic curve-fitting analysis.
row,EC50 [nM],Binder
1,350,B12
2,220,B2
3,24,B13
4,160,B14
5,34,B3
6,51,B15
7,150,B16
8,460,B4
9,6.4,B10
10,47,B17

# Target: catalytic domain of MMP-2 (human, UniProt P08253 115-449, limits assumed, biotinylated (Sulfo-NHS-LC-Biotin))
# Assay: ELISA, purified Fab at 50, 100, 250 and 500 nM on immobilised MMP catalytic domain, anti-Fab-HRP, OD450
# Chain of catalytic domain of MMP-2 (P08253 other isoform, or with tags, fused parts or gaps limits assumed): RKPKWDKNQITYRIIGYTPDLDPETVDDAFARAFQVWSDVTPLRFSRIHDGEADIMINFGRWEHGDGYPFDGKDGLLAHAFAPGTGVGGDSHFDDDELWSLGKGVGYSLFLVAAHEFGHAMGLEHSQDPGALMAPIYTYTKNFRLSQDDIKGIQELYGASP
row,binding result,Binder
1,no binding (tested: 500 nM),B13
2,no binding (tested: 500 nM),B10
3,no binding (tested: 500 nM),B17

# Target: T1, catalytic domain of MMP-9 (cdMMP-9)
# Assay: as above
row,binding result,Binder
1,no binding (tested: 500 nM),B13
2,no binding (tested: 500 nM),B10
3,no binding (tested: 500 nM),B17

# Target: T2, catalytic domain of MMP-14 (cdMMP-14)
# Assay: ELISA, Fab titrated on immobilised biotin-cdMMP-14, anti-Fab-HRP
row,EC50 [nM],Binder
1,220,B2
2,375,B1
3,34,B3
4,460,B4

# Target: T2, catalytic domain of MMP-14 (cdMMP-14)
# Assay: competitive ELISA: serially diluted n-TIMP-2 with Fab 3A2 fixed at 10 nM on biotinylated cdMMP-14 on streptavidin wells; bound Fab detected with anti-Fab-HRP; competitor: Fab 3A2
row,IC50 (read off the curve) [nM],Binder
1,~30,B11
